Source: publication PMC5383425, “Differential CLE peptide perception by plant receptors implicated from structural and functional analyses of TDIF-TDR interactions” (PLoS ONE, 2017)
Substitutions are numbered along the chain they refer to. Square brackets hold non-standard residues; d marks the D form. Ends that are not written are not given here. Hyp = O=C(O)[C@@H]1C[C@@H](O)CN1

Legend:
Conditions in all cases: both partners purified
[1] = target: T1, extracellular domain of A. thaliana TDR (residues 30-642) (Arabidopsis thaliana, UniProt Q9FII5 30-642, N-glycosylated at N111, N356, N378, N471 and N525 (one GlcNAc visible on each in the structures)); assay: crystal structure; ecdTDR 5 mg/ml (42 μM) mixed with 420 μM TDIF, 4°C for 1 hour; crystals at 18°C in 200 mM MgSO4, 20% PEG 3350; 2.75 Å
T1 construct: TDR/PXY (TDIF RECEPTOR / PHLOEM INTERCALATED WITH XYLEM) of A. thaliana, extracellular domain, residues 30-642; the structure models hold residues 40-625; also called ecdTDR; TDR-ECD; source: High Five insect cells (baculovirus), secreted, purified (Ni-NTA, size-exclusion chromatography)
T1 sequence (looked up): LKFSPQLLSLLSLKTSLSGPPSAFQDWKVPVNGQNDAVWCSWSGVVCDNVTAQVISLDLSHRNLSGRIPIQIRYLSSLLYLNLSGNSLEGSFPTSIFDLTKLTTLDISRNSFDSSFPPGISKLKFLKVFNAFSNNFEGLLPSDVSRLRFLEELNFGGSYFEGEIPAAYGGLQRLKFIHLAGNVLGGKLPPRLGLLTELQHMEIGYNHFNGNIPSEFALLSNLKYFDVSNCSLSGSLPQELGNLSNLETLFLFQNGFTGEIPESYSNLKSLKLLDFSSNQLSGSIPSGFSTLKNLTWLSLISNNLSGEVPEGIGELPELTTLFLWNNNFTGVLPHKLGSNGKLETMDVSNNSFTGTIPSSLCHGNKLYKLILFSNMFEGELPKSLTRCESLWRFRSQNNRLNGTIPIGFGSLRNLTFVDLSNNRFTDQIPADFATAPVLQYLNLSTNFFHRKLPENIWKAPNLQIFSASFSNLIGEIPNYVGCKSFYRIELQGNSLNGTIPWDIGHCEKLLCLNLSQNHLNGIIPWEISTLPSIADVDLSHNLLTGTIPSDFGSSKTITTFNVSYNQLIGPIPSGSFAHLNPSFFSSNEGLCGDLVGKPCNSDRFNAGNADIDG

[2] = target: T2, ecdTDR W325A mutant (Arabidopsis thaliana, UniProt Q9FII5 30-642, single alanine substitution of W325); assay: ITC; 0.5–1 mM peptide titrated into 10–40 μM ecdTDR; 25°C; 10 mM sodium citrate, 100 mM NaCl, pH 5.5; fitted to one set of binding sites; MicroCal Auto-iTC200
T2 construct: TDR/PXY of A. thaliana, extracellular domain, residues 30-642; also called single alanine substitution of W325; source: High Five insect cells (baculovirus), secreted, purified as the wild type (Ni-NTA, size-exclusion chromatography)
T2 sequence (looked up): T1 sequence (looked up) with W296A

[3] = target: T3, ecdTDR F161A mutant (Arabidopsis thaliana, UniProt Q9FII5 30-642, F161A); assay: as above
T3 construct: TDR/PXY of A. thaliana, extracellular domain, residues 30-642; source: High Five insect cells (baculovirus), secreted, purified as the wild type (Ni-NTA, size-exclusion chromatography)
T3 sequence (looked up): T1 sequence (looked up) with F132A

Measured: binding result

B1: Tracheary Element Differentiation Inhibitory Factor (TDIF) peptide (peptide)
peptide: HEV[Hyp]SG[Hyp]NPISN
notes: TDIF, the 12-residue CLE peptide processed from CLE41 and CLE44 of A. thaliana; printed as HEV(Hyp)SG(Hyp)NPISN; numbers count on: the 12-residue peptide; CLE44 encodes the same peptide; also called wild type TDIF; wtTDIF; source: synthetic peptide (peptide 2.0)
binds: all assays above
